Residue numbers refer to the chain shown, from its start. In names and notes the source's numbering stands.

The labels stand for the following.
B1: 6-phosphogluconate dehydrogenase (6PGDH) (Thermotoga maritima MSB8) (protein)
chain: MKSHIGLIGLAVMGQNLALNIARKGYKVSVYNRTAQRTEEFVKNRVTNEEIEPHYDIESFVKSLERPRKIILMVKAGKPVDDTISQLLPHLEPGDLIIDGGNSHYMDTERRFKELSEKGILFLGMGVSGGEYGALHGPSLMPGGSREAYNLVEEILLEIAAKTEDGPCCTYVGERSAGHFVKMVHNGIEYAIMQAIAEVYHIMRDVLSLSSEEMSSIFEEWNRGELSSFLVEITYKILRKKDEETGKPMVDVILDKAEQKGTGKWTSQAALDLGIPTPSINLAVVERVISHFKDIRTRLSKLYNKRRSATQGSEEFLRDLRNSLFFAMFMAFSQGMWLIAEASKEFGYGVSLSEVLRIWKGGCIIRAKLIDTLRRYISNENAYLLENEEVMNLLKGKIDSLKNILKASIENEIPVPVLSSSYNYFMSLTEERLPANLIQAQRDFFGAHTFERVDREGVFHINWEEGEIG
B2: 6-phosphogluconate dehydrogenase (6PGDH) (Thermotoga maritima MSB8; R33I/T34I) (protein)
chain: B1 chain with R33I, T34I
B3: 6-phosphogluconate dehydrogenase (6PGDH) (Thermotoga maritima MSB8; A11G/R33I/T34I) (protein)
chain: B1 chain with A11G, R33I, T34I
B4: 6-phosphogluconate dehydrogenase (6PGDH) (Thermotoga maritima MSB8; A11G/D82L/Q86L/R33I/T34I/T83L) (protein)
chain: B1 chain with A11G, R33I, T34I, D82L, T83L, Q86L
B5: 6-phosphogluconate dehydrogenase (6PGDH) (Thermotoga maritima MSB8; A11G/A447V/D294V/D82L/I120F/K27R/N387S/Q86L/R33I/T34I/T83L/Y383C) (protein)
chain: MKSHIGLIGLGVMGQNLALNIARKGYRVSVYNIIAQRTEEFVKNRVTNEEIEPHYDIESFVKSLERPRKIILMVKAGKPVDLLISLLLPHLEPGDLIIDGGNSHYMDTERRFKELSEKGFLFLGMGVSGGEYGALHGPSLMPGGSREAYNLVEEILLEIAAKTEDGPCCTYVGERSAGHFVKMVHNGIEYAIMQAIAEVYHIMRDVLSLSSEEMSSIFEEWNRGELSSFLVEITYKILRKKDEETGKPMVDVILDKAEQKGTGKWTSQAALDLGIPTPSINLAVVERVISHFKVIRTRLSKLYNKRRSATQGSEEFLRDLRNSLFFAMFMAFSQGMWLIAEASKEFGYGVSLSEVLRIWKGGCIIRAKLIDTLRRYISNENACLLESEEVMNLLKGKIDSLKNILKASIENEIPVPVLSSSYNYFMSLTEERLPANLIQAQRDFFGVHTFERVDREGVFHINWEEGEIG
B6: 6-phosphogluconate dehydrogenase (6PGDH) (Thermotoga maritima MSB8; A11G/A447V/D294V/D82L/F326S/F60Y/I120F/K118N/K27R/N387S/Q86L/R33I/T34I/T83L/Y383C) (protein)
chain: B5 chain with F60Y, K118N, F326S

The target in one data set is glucose-6-phosphate dehydrogenase (G6PDH) (Thermotoga maritima, UniProt Q9X0N9). Description: specific activity of purified enzyme. Type of data set: biochemical. The conditions noted are these: co-substrate glucose 6-phosphate.
glucose-6-phosphate dehydrogenase (G6PDH), sequence (Q9X0N9 whole entry): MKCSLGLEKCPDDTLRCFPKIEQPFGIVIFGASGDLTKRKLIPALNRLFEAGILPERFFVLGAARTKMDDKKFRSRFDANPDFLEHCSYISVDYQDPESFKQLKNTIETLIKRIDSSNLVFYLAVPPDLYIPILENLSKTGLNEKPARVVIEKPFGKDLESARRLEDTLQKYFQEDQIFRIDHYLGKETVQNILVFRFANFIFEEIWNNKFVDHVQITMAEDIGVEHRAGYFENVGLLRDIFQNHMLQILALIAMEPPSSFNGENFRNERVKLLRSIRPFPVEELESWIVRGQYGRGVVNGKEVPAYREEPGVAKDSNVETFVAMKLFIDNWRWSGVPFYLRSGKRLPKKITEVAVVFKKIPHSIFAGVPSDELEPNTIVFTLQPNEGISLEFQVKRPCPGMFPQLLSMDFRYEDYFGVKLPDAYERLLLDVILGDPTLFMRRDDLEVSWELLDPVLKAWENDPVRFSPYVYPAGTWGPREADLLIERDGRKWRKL
`NC(=O)c1ccc[n+]([C@@H]2O[C@H](COP(=O)([O-])O)[C@@H](O)[C@H]2O)c1` [NMN^+]: the “specific activity of purified enzyme” value is given as “color intensities of colonies positively correlated with the specific activities of the purified dehydrogenases on NMN^+”.

Substrate in the next data set: NC(=O)c1ccc[n+]([C@@H]2O[C@H](COP(=O)(O)OP(=O)(O)OC[C@H]3O[C@@H](n4cnc5c(N)ncnc54)[C@H](OP(=O)(O)O)[C@@H]3O)[C@@H](O)[C@H]2O)c1
The data set is described as follows: steady-state kinetics of purified enzyme. Type of data set: biochemical, Thermotoga maritima. The conditions noted are these: apparent constants; co-substrate 6-phosphogluconate; assay details in supplement.
For B1, the Km was 0.0012 ± 0.0001 mM, the catalytic constant (kcat) was determined as 15.9 ± 0.2 s⁻¹ and the kcat/Km is 1.34e+07 M⁻¹ s⁻¹.

With B2, the Km is listed as 11.5 ± 1.1 mM, the kcat worked out at 14.8 ± 0.7 s⁻¹ and the kcat/Km is 1300 M⁻¹ s⁻¹.

As to B3, the Km is listed as 2.1 ± 0.1 mM, the kcat worked out at 28.3 ± 0.6 s⁻¹ and the kcat/Km was found to be 13200 M⁻¹ s⁻¹.

As to B4, the Km was 0.39 ± 0.02 mM, the kcat came out at 21.1 ± 0.3 s⁻¹ and the kcat/Km is 53700 M⁻¹ s⁻¹.

For B5, the Km is listed as 0.22 ± 0.01 mM, the kcat stood at 21.9 ± 0.2 s⁻¹ and the kcat/Km was found to be 101000 M⁻¹ s⁻¹.

In the case of B6, the Km came to 0.21 ± 0.01 mM, the kcat worked out at 23.6 ± 0.3 s⁻¹ and the kcat/Km is 113000 M⁻¹ s⁻¹.

Substrate in the next data set: NC(=O)c1ccc[n+]([C@@H]2O[C@H](COP(=O)([O-])O)[C@@H](O)[C@H]2O)c1
The data set is described as follows: steady-state kinetics of purified enzyme. Type of data set: biochemical, Thermotoga maritima. The conditions noted are these: apparent constants; co-substrate 6-phosphogluconate; assay details in supplement.
On to B1, for which the Km turned out to be 30.6 ± 1.7 mM, the kcat is 1.3 ± 0.1 s⁻¹ and the kcat/Km was 42 M⁻¹ s⁻¹.

Turning to B2, the Km amounted to 37.9 ± 3.6 mM, the kcat came to 1.7 ± 0.1 s⁻¹ and the kcat/Km came out at 46 M⁻¹ s⁻¹.

Turning to B3, the Km stood at 20.7 ± 0.7 mM, the kcat was determined as 10.2 ± 0.2 s⁻¹ and the kcat/Km worked out at 490 M⁻¹ s⁻¹.

B4: the Km worked out at 27.5 ± 1.2 mM, the kcat came to 19.3 ± 0.4 s⁻¹ and the kcat/Km was found to be 700 M⁻¹ s⁻¹.

As for B5, the Km is on record as 15.1 ± 0.6 mM, the kcat amounted to 18.9 ± 0.4 s⁻¹ and the kcat/Km amounted to 1250 M⁻¹ s⁻¹.

B6: the Km is 16.0 ± 1.1 mM, the kcat is 25.8 ± 0.8 s⁻¹ and the kcat/Km came out at 1620 M⁻¹ s⁻¹.

What is called Km is the concentration of substrate that gives half-maximal velocity. In general, kcat refers to the number of substrate molecules converted per active site and unit of time at saturation. A word on the kcat/Km: it is the second-order rate constant that governs catalysis at low substrate concentration.

For the origin of these results see article PMC8580058 (ACS catalysis, 2019).
